Test [1] deals with T84 epithelial monolayers. Nature of the test: Scratch wound closure of epithelial monolayers. The class given is cell-based, human. Conditions: for epithelial wound closure: T84 scratch wound, monitored over 72 h, FIG. 10. As for the experimental part:
T84 epithelial monolayers grown to confluence were wounded by introduction of a single linear scratch wound using a 20-μl plastic pipette tip. Wound closure was monitored over 72 h in the absence or presence of PMN or sJAML. The scale bar is 10 μm.
Whether JAML binding to CAR would affect epithelial wound restitution was investigated. […] If soluble JAML interactions with CAR play a role, the effect could be reversed with the addition of blocking DW100 mAb.
Cell grown in 24-well tissue culture plates received one linear wound using a 20-μl plastic pipette tip attached to low suction. Wounded monolayers were washed once with PBS to remove detached cells and debris, and incubated with the appropriate stimulus added to the medium. The rate of migration was measured by determining the wound area immediately after wounding (t=0) and at the indicated time points. The data are presented as the area of the wound at each time point normalized to t=0. The experiments were carried out in triplicates per condition, and the data shown are representative of 4 independent experiments.

The test system of test [2] is CHO-JAML and CHO-CAR cells. The test is described as follows: CHO-JAML / CHO-CAR cell aggregation assay. The class given is cell-based. Conditions: for aggregation of mixed CHO-CAR and CHO-JAML cultures (number and size of clusters): antibodies 30 μg/ml, 1 hour at 37° C., FIG. 1D. The protocol:
FIG. 1D. CHO-K1 cells stably transfected with either JAML (CHO-JAML) or CAR (CHO-CAR) proteins were allowed to aggregate (1 hour at 37° C. on a shaker at 50 RPM) separately (1×10^6 cells/BSA coated 3 ml Petri dish), or as a mix (5×10^5 each cell type/dish), in the absence or presence of anti-JAML monoclonal antibodies DW100, DW55 and DW216 (30 μg/ml). The number of clusters (left) and the area of the clusters (right) were quantified in 7 randomly chosen fields using light microscopy. The results are representative of four independent experiments. CHO-CAR and CHO-JAML in mixed cultures formed large aggregates.
Because certain antibodies recognize the membrane distal domain of JAML, their ability to inhibit binding to CAR was tested. By ELISA, the levels of soluble CAR-GST bound to immobilized sJAML-His preincubated with anti JAML antibodies was measured. […] Thus, these antibodies recognize three different epitopes on JAML and that both DW100 and DW55 bind epitopes close to the JAML binding site. Using a cell aggregation assay, the possibility that DW100 could inhibit the binding of JAML to CAR expressed on the surface of cells was examined. […] This again confirms previously described JAML binding to CAR, as well as the specificity of DW100 (blocking) and DW216 (non-blocking) Abs to JAML.

The next test concerns T84 monolayers. Nature of the test: Epithelial barrier recovery after calcium switch (TER, dextran flux). Conditions: for epithelial barrier recovery (TER) after calcium depletion: 30 μg/ml, 20 m/ml, up to 24 hours, FIG. 9A. It counts as cell-based, human. As for the experimental part: T84 monolayers grown on permeable supports were subjected to transient calcium depletion by preincubation in Ca2+ free buffer (PBS) for 40 min to disassemble tight junctions, followed by switching back to calcium containing medium without (No Tx), or with sJAML or a control recombinant IgSF protein sSIRPa (30 μg/ml). Barrier recovery was measured as transepithelial resistance (TER) at time points as indicated.
FIG. 9B. Flux of fluorescently labeled dextran (3 k) was measured at the 24 h time point for conditions as described in panel A. N=4.
Since CAR plays a role in epithelial barrier, the effect of soluble JAML on epithelial barrier recovery was tested. Transepithelial resistance (TER) recovery experiments and dextran flux assay were performed with T84 cells grown in transwells (FIG. 9) as well as with Caco2 cells. […] As a negative control, a related soluble IgSF molecule SIRPalpha had no effect.

The test system of test [3] is T84 intestinal epithelial cells. The test is described as follows: EdU incorporation cell proliferation at wound edge. The class given is cell-based, human. Conditions: FIG. 10C,D. As for the experimental part:
FIG. 10C. Epithelial monolayers were wounded as described above and cell proliferation at the wound edge after 24 hours incubation with either sJAML or sSIRPa (30 μg/ml), with or without the addition of DW100 mAb was assessed by EdU incorporation assay. Data presented as proliferating cells (positively stained with EdU) out of all cells in the field multiplied by 100. Cells were counted in 7 randomly selected fields in 4 independent experiments.
JAML binding CAR to inhibit epithelial cell proliferation was investigated as a possible mechanism for impeding wound healing.
Cell proliferation was assessed in […] (EdU) incorporation assay, by using a Click-iT EdU Alexa 488 cell proliferation kit (Invitrogen). Cell apoptosis was assessed by staining with sulforhodamine labeled caspase inhibitor SR-VAD-FMK from APO LOGIX
Sulforhodamine Caspase Detection kit (Cell Technology). Scratch wounded or confluent cells were subjected to treatment as indicated in the figure were incubated for 24 hrs at 370 C before addition of EdU or APO LOGIX Sulforhodamine Caspase Detection kits. At least 5 random fields per each condition were analyzed, the data are presented as % proliferating/apoptotic cells out of total cells in the field.

In the next test the test system is T84 and CACO-2 cells. The test is described as follows: Cell adhesion assay, PMN and HL60 to epithelial monolayers. It counts as cell-based, human. Conditions: sJAML-His and mAbs 30 μg/ml, 1 hour. The protocol: PMN cells were pre-labeled with CellTracker™ Green (CMFDA). Labeled cells (2.5×10^5/well) were allowed to adhere for 1 hour to T84 (white bars) and CACO-2 (black bars) cells grown to confluency in 24 well tissue culture microtiter wells, in the absence (NoTx) or presence of soluble JAML (sJAML-His), 30 μg/ml), anti-JAML monoclonal antibodies DW100 and DW216 (30 μg/ml), or alternatively to stable CACO-2 cells lacking CAR. Non-adherent HL60 cells and PMN were removed by 3 washes with HBSS. Adherent cells were harvested by treating the monolayers with trypsin, followed by lysis with 0.1% Triton 100×. Fluorescence intensity was measured using FluoStar Galaxy plate reader at excitation/emission wavelengths of 485/535 nm.
JAML-CAR interactions are involved in PMN adhesion to epithelium. […] Indeed adhesion of both HL-60 cells and PMNs to epithelium is partly dependent upon JAML-CAR binding. […] HL-60 cells and PMNs also adhered to a lesser degree to Caco2 cells where the expression of CAR was stably knocked down, confirming the specificity of the adhesion events to JAML-CAR interactions.
Epithelial cells (T84/Caco-2) were seeded on 24-well plates (10^6 cells/well) and cultured until they reached confluence. […] Fluorescence intensity was measured using FluoStar Galaxy plate reader at excitation/emission wavelengths of 485/535 nm. […]

The subject of test [4] is PMN transepithelial migration. Nature of the test: PMN transepithelial migration. It counts as cell-based, human.

Experimental findings from US10465005B2, “JAML specific binding agents, antibodies, and uses related thereto” (Emory University, priority 2011, dated 2019) are described below.

“Also recorded” adds a separate entry of the source.

B1: sJAML: recombinant soluble fragment of JAML.D1D2 tagged with 10 His residues at the C-terminus (protein)
chain: LNDLNVSPPELTVHVGDSALMGCVFQSTEDKCIFKIDWTLSPGEHAKDEYVLYYYSNLSVPIGRFQNRVHLMGDILCNDGSLLLQDVQEADQGTYICEIRLKGESQVFKKAVVLHVLPEEPKELMVHVGGLIQMGCVFQSTEVKHVTKVEWIFSGRRAKEEIVFRYYHKLRMSVEYSQSWGHFQNRVNLVGDIFRNDGSIMLQGVRESDGGNYTCSIHLGNLVFKKTIVLHVSPEEPRTL
For B1, the epithelial wound closure result was “inhibited wound closure” in test [1]; “delayed both epithelial barrier recovery and wound restitution” in test [1] (listed as Soluble JAML). For the same molecule, the “aggregation of mixed CHO-CAR and CHO-JAML cultures (number and size of clusters)” value in test [2] is “blocked”. In addition, the “epithelial barrier recovery (TER) after calcium depletion” value in the test with T84 monolayers (listed as Soluble JAML) is “decreased epithelial barrier recovery; also recorded: delayed both epithelial barrier recovery and wound restitution”; in the test with T84 monolayers (listed as soluble JAML) it was “significantly impaired the recovery of epithelial barrier”. The “flux of fluorescently labeled dextran (3 k)” value with T84 monolayers (24 h time point, FIG. 9B) is listed as “increased dextran flux”. Further, the “proliferation of epithelial cells at wound edge (EdU)” value in test [3] (30 μg/ml, 24 hours) is reported as “significantly inhibits proliferation of T84 intestinal epithelial cells”. Moreover, the “adhesion of HL60 cells and PMN to epithelial monolayer” value in the test with T84 and CACO-2 cells (FIG. 8, listed as soluble JAML) was “decreased adhesion of HL60 cells and PMN to epithelial monolayer; also recorded: significantly decreased”.

B2: DW100: monoclonal anti-human JAML antibody (IgG1,κ), hybridoma ATCC PTA-13051; VH SEQ ID NO:19, VL SEQ ID NO:22 (antibody, V domains shown)
VH: DVQLVESGAELVRPGASKLSCKALAYTFTDYEMHWVKQTPVHGLEWIGIIHPGSGGTVYNQKFKGKATLTADKSSSTAYMELSSLTSEDSTVYYCTRRRYYGSSYNWYFDVWGAGN
VL: VLTQSPASLAASVGETVTITCRASENIYYSLAWYQQKQGKSPQLLIYNANSLEDGVPSRFSGSGSGTQYSLKINSMQPEDTATYFCEQTYDVPLTFGAGTKLEL
As for B2, the “reversal of PMN or sJAML inhibition of wound closure” value in test [1] (T84, mAb 30 μg/ml, FIG. 10A,B) is “reversed this inhibition; also recorded: significantly improved wound restitution”. For the same molecule, the “aggregation of CHO-JAML cells alone (JAML-JAML)” value in test [2] (FIG. 1) is reported as “could not be blocked with DW100 mAb”. Moreover, the “aggregation of mixed CHO-CAR and CHO-JAML cultures (number and size of clusters)” value in test [2] is “could be blocked with DW100; also recorded: significantly inhibited aggregation of mixed cultures of CHO transfectants; also recorded: significantly decreased both the size and the number of formed clusters”. For the same molecule, the “block of soluble JAML inhibition of proliferation” value in test [3] (EdU) is listed as “blocked by addition of DW100”. Further, in the test with T84 and CACO-2 cells (FIG. 8), the “adhesion of HL60 cells and PMN to epithelial monolayer” value is “decreased adhesion of HL60 cells and PMN to epithelial monolayer; also recorded: significantly decreased”. In addition, in test [4], the “inhibitory effect on PMN transepithelial migration” value is approximately 15%.
